{"source": "paper PMC3664699", "key": {"[1]": {"biological_target": "GluA2 ATD, GnTI−", "experiment": "AUC"}, "[2]": {"biological_target": "GluA2S-FAM", "experiment": "AUC"}, "[3]": {"biological_target": "EndoH-digested, FAM-labeled GluA2S", "experiment": "AUC"}, "[4]": {"biological_target": "EndoH-digested, FAM-labeled GluA2S", "experiment": "AUC", "remark": "listed apart in the source"}, "[5]": {"biological_target": "EndoH-digested, FAM-labeled GluA2S", "experiment": "AUC", "remark": "listed apart in the source"}, "[6]": {"biological_target": "GluA2L", "experiment": "AUC"}, "[7]": {"biological_target": "GluA3 (AMPA receptor amino-terminal domain)", "experiment": "AUC"}, "[8]": {"biological_target": "EndoH-digested GluA2S", "experiment": "AUC"}, "[9]": {"biological_target": "EndoH-digested GluA2S", "experiment": "AUC", "remark": "listed apart in the source"}, "[10]": {"biological_target": "EndoH-digested GluA2S", "experiment": "AUC", "remark": "listed apart in the source"}, "[11]": {"biological_target": "EndoH-digested GluA2S", "experiment": "AUC", "remark": "listed apart in the source"}, "[12]": {"biological_target": "EndoH-digested GluA2S", "experiment": "AUC", "remark": "listed apart in the source"}, "[13]": {"biological_target": "GluA2S, GluA2 ATD with complex glycosylation (293T)", "experiment": "AUC"}, "[14]": {"biological_target": "GluA2S, GluA2 ATD with complex glycosylation (293T)", "experiment": "AUC", "remark": "listed apart in the source"}, "[15]": {"biological_target": "EndoH-DyLight (GluA2 ATD, EndoH-digested, DyLight-labeled)", "experiment": "fluorescence polarisation"}}, "note": "Several values for one entry are separate records, joined by “and”; a condition that tells them apart may be missing. Identical values can stand only once. Like-named read-outs stand apart in the source and are kept apart here.", "data": [{"substance": "GluA2 ATD, GnTI− (domain or fragment)", "values": [{"measurement": "Kd", "setting": "[1]", "value": 11, "unit": "nM"}]}, {"substance": "GluA2S-FAM (domain or fragment)", "values": [{"measurement": "Kd", "setting": "[2]", "value": 14.9, "unit": "nM"}]}, {"substance": "EndoH-digested, FAM-labeled GluA2S (domain or fragment)", "values": [{"measurement": "Kd", "setting": "[3]", "value": 13, "unit": "nM"}, {"measurement": "Kd", "setting": "[4]", "value": 10, "unit": "nM"}, {"measurement": "Kd", "setting": "[5]", "value": 2.5, "unit": "nM"}]}, {"substance": "GluA2L (domain or fragment)", "values": [{"measurement": "Kd", "setting": "[6]", "value": 5.5, "unit": "nM"}]}, {"substance": "GluA3 (AMPA receptor amino-terminal domain) (domain or fragment)", "values": [{"measurement": "Kd", "setting": "[7]", "value": 5600, "unit": "nM"}, {"measurement": "stoichiometry N", "setting": "[7]", "value": 2}]}, {"substance": "EndoH-digested GluA2S (domain or fragment)", "values": [{"measurement": "Kd", "setting": "[8]", "value": 17, "unit": "nM"}, {"measurement": "Kd", "setting": "[9]", "value": 30, "unit": "nM"}, {"measurement": "Kd", "setting": "[10]", "value": "160 nM and 284 nM"}, {"measurement": "stoichiometry N", "setting": "[10]", "value": 2}, {"measurement": "Kd", "setting": "[11]", "value": 12, "unit": "nM"}, {"measurement": "Kd", "setting": "[12]", "value": "12 nM and 8.3 nM and 10 nM"}]}, {"substance": "GluA2S, GluA2 ATD with complex glycosylation (293T) (domain or fragment)", "values": [{"measurement": "Kd", "setting": "[13]", "value": 6, "unit": "nM"}, {"measurement": "stoichiometry N", "setting": "[13]", "value": 2}, {"measurement": "Kd", "setting": "[14]", "value": 8.3, "unit": "nM"}]}, {"substance": "EndoH-DyLight (GluA2 ATD, EndoH-digested, DyLight-labeled) (domain or fragment)", "values": [{"measurement": "Kd", "setting": "[15]", "value": "10.8 nM and 11.3 nM and 8.43 nM"}]}]}
